Measurements reported in IntAct's records for PubMed 19298369.

B1: Sigma factor AlgU negative regulatory protein (Pseudomonas aeruginosa (strain ATCC 15692 / PAO1 / 1C / PRS 101 / LMG 12228)), P38107 (parent)
chain: MSREALQETLSAVMDNEADELELRRVLAACGEDAELRSTWSRYQLARSVMHREPTLPKLDIAAAVSAALADEAAPPKAEKGPWRMVGRLAVAASVTLAVLAGVRLYNQNDALPQMAQQGTTPQIALPQVKGPAVLAGYSEEQGAPQVITNSSSSDTRWHEQRLPIYLRQHVQQSAVSGTESALPYARAASLENR
partner: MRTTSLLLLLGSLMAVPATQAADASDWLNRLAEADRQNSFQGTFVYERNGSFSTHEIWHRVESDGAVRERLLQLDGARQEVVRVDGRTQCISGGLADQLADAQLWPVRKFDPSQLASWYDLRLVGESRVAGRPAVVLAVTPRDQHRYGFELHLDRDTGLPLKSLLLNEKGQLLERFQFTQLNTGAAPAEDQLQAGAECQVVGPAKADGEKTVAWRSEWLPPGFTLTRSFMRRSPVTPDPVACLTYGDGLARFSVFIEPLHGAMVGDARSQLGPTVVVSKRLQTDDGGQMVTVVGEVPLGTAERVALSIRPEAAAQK

Variants of: B1
Details: with mucb_pseae mucB

| Variant | effect of a mutation on the interaction |
| --- | --- |
| S154C | decreasing interaction strength |
